Data reported in the DeepSol protein solubility set.

assay: soluble on expression in E. coli; label from the status in PepcDB or PDB records

With “MEFVVEEGKLVNEDCSTLVLPALSIGNVGQLAVDLLVSSTGAERVGYLDDPNLLPCVGNDAYGPLPCGEIALPLEVYESSSIATTLAQQRSPVAKGMMIKFAENIANFAASSGKKHIIVLSSLDFQRLHNLDMSRGPQVYYLSNAESDGRDDHCERLGFGRLHEYDSEGRCWKYLSSVFEKNSVEELALPSEDELEDIDYYPSLPFAALFSAFKARGLKMTCLLCYCSEGDNIPEAFLLAEASSKLMGLTPDKFHGEEGGKWQIPYSWKSMYGAPPDMSMF” as the sequence, how does the “soluble on expression in E. coli” value read?
Its value is “soluble”.

Which “soluble on expression in E. coli” value does the source give for “MEGEYRLTRSYAVVDITAQVDDSAILEPFACVMARARIGPRTRVGAHSVVGVGVSVGADCCIYHHVTLLNCDIGDRCVIHSGVAIGQDGFGFEVDQQTGKVRKKPQELSVRIGNEVEIGANTCIDRGSWRDTLIEDAVKIDNLVQIGHNVQVGANTFICGQAGVAGSTKIGRYCRFGGRSGAVDHLEIGDHVDVAANSVLTRNAPGHAVYAGFPAMPMREWRHQQVTLRRLSRAGKRQVDVSADDPEFPK” here?
Its value is “not soluble”.

Which “soluble on expression in E. coli” value does the source give for “MEHHHHHHATNLRGVMAALLTPFDQQQALDKASLRRLVQFNIQQGIDGLYVGGSTGEAFVQSLSEREQVLEIVAEEAKGKIKLIAHVGCVSTAESQQLAASAKRYGFDAVSAVTPFYYPFSFEEHCDHYRAIIDSADGLPMVVYNIPALSGVKLTLDQINTLVTLPGVGALKQTSGDLYQMEQIRREHPDLVLYNGYDNIFASGLLAGADGGIGSTYNIMGWRYQGIVKALKEGDIQTAQKLQTECNKVIDLLIKTGVFRGLKTVLHYMDVVSVPLCRKPFGPVDEKYLPELKALAQQLMQER” here?
The value was “soluble”.

For “MEHKIGRGLLLGGLLSRFAGFLQSSEESLTSSFASYSSSFFLLTNTRDKRRSERTHTYMQVAQIICAHGATISTTRATLQRAPQSLLATSPDATSDSDDKIVRILVEALRRSDMSIIVSESFDQWARLAVEAKRLGLISFVEAACPSTISISCHAALSTGRINPEVTFRKVHNIHFMAQKTTGKAFASSNPEPVKGTTTSPFFLLSFFFPFFCSFLLRFSPINFPLLLLMNTAIGEYVLRIVVSGKVIMCRAVFGDSLNECRDGGGTDFEMDRYTSR”, which “soluble on expression in E. coli” value is on record?
Its value is “not soluble”.

Which “soluble on expression in E. coli” value does the source give for “MEHKIREEMRVLPSIDPQFEIERRVAFIKRKLTEARCKSLVLGISGGVDSTTCGRLAQLAVEELNQQHNTTEYQFIAVRLPYGEQKDEDEAQLALSFIRPTHSVSVNIKAGVDGLHAASHHALANTGLIPSDPAKVDFIKGNVKARARMVAQYEIAGYVGGLVLGTDHSAENITGFYTKFGDGACDLAPLFGLNKRQVRLLAKTLGAPEQLVYKTPTADLEELAPQKADEAALNLTYEQIDDFLEGKAVPAEVSQRLVAIYHATQHKRQPIPTIYD” here?
Its value is “soluble”.

With “MEIELICICCPKGCHLKVDDKSLRVEGNNCPRGAEYGVNEITNPVRTITSTVKVEKGEAVIVPVKTKEPIPKKLTMGCMEEINKAVINAPVKIGDVVIKNVLGTGIDVVATKNVSGI” as the sequence, how does the “soluble on expression in E. coli” value read?
The value was “soluble”.

Which “soluble on expression in E. coli” value does the source give for “MEINEKLLRQIIEDVLSEMKGSDKPVSFNAPAASAAPQATPPAGDGFLTEVGEARQGTQQDEVIIAVGPAFGLAQTVNIVGIPHKSILREVIAGIEEEGIKARVIRCFKSSDVAFVAVEGNRLSGSGISIGIQSKGTTVIHQQGLPPLSNLELFPQAPLLTLETYRQIGKNAARYAKRESPQPVPTLNDQMARPKYQAKSAILHIKETKYVVTGKNPQELRVAL” here?
Its value is “soluble”.

For “MEINSREVYVFTPKGDVMSLPQGATPVDFAYAVHTEVGHRCIGARVNGKLVTLDTKLNNGDVIDILTSNAPDAGPSRLEHHHHHH”, which “soluble on expression in E. coli” value is on record?
Its value is “not soluble”.

Which “soluble on expression in E. coli” value does the source give for “MEINVQSDVGRKRNTNQDYANVFENQQHITFAVLADGMGGHQAGDVASQMAVNNLGESWSNASVDSAEKSAQWLIQAIQKENEKIYERGQSKPEYLGMGTTVVGAILLPDSFVLANVGDSRAYLVRDQHMLQLTEDHSLVNELVKSGEITREMAANHPRKNVLTRSLGMPGTVEVDVTNHEWLPNDYLLLCSDGLTNMVPETKILEILETSDPLESKLSQLVAQANEAGGLDNITVLVIHFDEQKEENQ” here?
Its value is “not soluble”.

With “MEISTLLALSPLDGRYQQKVAALRPFFSEYALIRNRIHVEIEWFKALGNTPALTGASSLSTGAVVQLDQLVENFSVTDAEAVKSIETRTNHDVKAVEYWLKEKLTGDQETAAISE” as the sequence, how does the “soluble on expression in E. coli” value read?
The value was “not soluble”.

For “MEITNVNEYEAIAKQKLPKMVYDFYASGAEDQWTLAENRNAFSRILFRPRILIDVTNIDMTTTILGFKISMPIMIAPTAMQKMAHPEGEYATARAASAAGTIMTLSSWATSSVEEVASTGPGIRFFQLYVYKDRNVVAQLVRRAERAGFKAIALTVDTPRLGRREADIKNRFVLPPFLTLKNFEGIDLGKMDKANDSGLSSYVAGQIDRSLSWKDVAWLQTITSLPILVKGVITAEDARLAVQHGAAGIIVSNHGARQLDYVPATIMALEEVVKAAQGRIPVFLDGGVRRGTDVFKALALGAAGVFIGRPVVFSLAAEGEAGVKKVLQMMRDEFELTMALSGCRSLKEISRSHIAADWDGPSSRAVARL”, which “soluble on expression in E. coli” value is on record?
The value was “soluble”.

With “MEIYLVFVDAASNSNKFWTAKVEQNQLTVQWDRVGYKAQTKVHQFTSQAQAANKYNNLVFEKKAKGYQESQPQIESCGVVDIRRAMQLLNGLRSYVTNRNFNADYINLLNQYLKIIPTPLGMQLEPYRIFTSVADVDHQRELLSSLIPATPVAVTQAKQMPESQEKIVSLRGIHKNLWRHFLEHHHHHH” as the sequence, how does the “soluble on expression in E. coli” value read?
Its value is “not soluble”.

Which “soluble on expression in E. coli” value does the source give for “MEKLSSSSHFLDLGGLDNLRAQAQKDEKGALKKVAQQFEGVFVQMLMKSMRDANAVFESDSPLNSQYTKFYEQMRDQQLSVDLSDKGVLGLADMMVQQLSPESSPFTPASVLRNDGGMKLEHDAKALNIPTQTPSTAEAESANTPVVVAHGVPASIARPSVEFEDNNGVTSSLDIDRPQRLLAIDTPKPTWSEQPLSAIEPVISGQILPTVAFRETQKTLKFGSREEFLATLYPHAEKAAKALGTKPEVLLAQSALETGWGQKIVRGHNGAPSHNLFNIKADRRWQGDKANVSTLEFEQGIAVRQKADFRVYNDFDHSFNDFVSFIADGERYQDAKKVAASPTQFIRALQEAGYATDPKYAEKVIKVMQSISEELKSILPGEDK” here?
The value was “not soluble”.
